Data reported in publication PMC4114559, “Pigment Dispersing Factor Regulates Ecdysone Biosynthesis via Bombyx Neuropeptide G Protein Coupled Receptor-B2 in the Prothoracic Glands of Bombyx mori” (PLoS ONE, 2014).

Columns and labels:
PGs of B. mori = test: Ecdysone biosynthesis in cultured PGs (LC-MS/MS); assay type: cell-based, Bombyx mori
Protocol: Two strains of the silkworm B. mori were used for this study. The p50T strain was used for NGS analysis and tissue distribution analysis, and the Kinshu x Showa strain was used for other experiments. The p50T strain was reared on mulberry leaves at room temperature. The Kinshu x Showa strain was reared on an artificial diet (SilkMate PS: Nihon Nosan Kogyo) at 25°C under a 16L:8D photoperiod. The first feeding day was designated as day 0.
(§1) Dissected PGs were rinsed with Grace's insect culture medium (Gibco) and pre-cultured individually in 100 µl medium in 96-well plates (BD Falcon) at 25°C for 30 min. To evaluate the effect of extracellular Ca^2+ on ecdysone biosynthesis, lepidopteran saline and lepidopteran saline using NaCl as a replacement for CaCl2 were used. For the pharmacological analysis, the PG was pre-treated with the inhibitor for 15 min during the pre-culture period. Following this treatment, the PG was cultured in the desired conditions for the desired period (Ecdysone assay: 3 hours; cAMP assay: 30 min; and Protein phosphorylation assay: 15 min). Actinomycin D, H-89 and cycloheximide (CHX) were purchased from Sigma; Rapamycin was purchased from Santa Cruz Biotechnology; and LY294002 was purchased from Merck. H-89 was dissolved in water. The other inhibitors were dissolved in DMSO. […]
Prior to ecdysteroids extraction, the 100 µl of cultured medium was diluted with equal volume of MilliQ water. […] Quantification of ecdysteroids using LC-MS/MS was performed as previously described with some modifications. […] The separated ecdysteroids were quantified with the QTRAP5500 MS/MS system (AB SCIEX) using MRM mode. For the quantitative analysis, standard curves were generated with concentrations of 0.98–1000 ng/ml.
The effect of PDF and DH31 on ecdysone biosynthesis was evaluated in the PGs of B. mori. The PGs of V7 larvae were cultured with PDF or DH31, and the amount of ecdysone synthesized was measured using LC-MS/MS [21]. […]
Figure 3 Prothoracicotropic activities of PDF in vitro. […] Statistically significant differences were evaluated by Student's t-test (***P<0.001, **P<0.01, *P<0.05).

4E-BP = test: p-4E-BP level in cultured PGs (Western blot); assay type: cell-based, Bombyx mori; details: cultured PGs, 15 min; immunoblotting
Protocol: as §1, with “min).” for “min). Actinomycin D, H-89 and cycloheximide (CHX) were purchased from Sigma; Rapamycin was purchased from Santa Cruz Biotechnology; and LY294002 was purchased from Merck. H-89 was dissolved in water. The other inhibitors were dissolved in DMSO.”
Dissected PGs were pre-cultured in Grace's culture medium for 30 min, then cultured with or without PDF or PTTH for 15 min. The cultured PGs were sonicated in 50 mM Tris-HCl (pH 6.8) with protease inhibitor cocktail (Complete, Roche) and phosphatase inhibitor cocktail (Wako), lysed in 1x SDS sample buffer excluding 2-mercaptoethanol (2ME) and bromophenol blue (BPB), and the protein concentration was measured using the BCA protein assay kit (Pierce). […]
Figure 4 Signaling pathways involved in PDF-induced ecdysone biosynthesis. […] The transcript levels of nvd, nm-g, spo, phm, dib and sad were quantified with Q-PCR. […] Statistically significant differences were evaluated by Student's t-test (***P<0.001, **P<0.01). […]

B1: PTTH: prothoracicotropic hormone, humoral pathway-mediated tropic hormone (protein, UniProt P17219 116-224, looked up)
Prothoracicotropic hormone: GNIQVENQAIPDPPCTCKYKKEIEDLGENSVPRFIETRNCNKTQQPTCRPPYICKESLYSITILKRRETKSQESLEIPNELKYRWVAESHPVSVACLCTRDYQLRYNNN
modifications: Prothoracicotropic hormone
ecdysone biosynthesis without extracellular Ca2+ (PGs of B. mori; Ca2+-free lepidopteran saline (CaCl2 replaced by NaCl), n = 6): did not induce ecdysone biosynthesis
EC50 (PGs of B. mori; dose-response, cultured PGs of V7 larvae, 3 hours, LC-MS/MS, PTTH n = 10–38, read-out: EC50 (ecdysone biosynthesis, prothoracicotropic activity)): 0.108 nM
concentration of highest prothoracicotropic activity (PGs of B. mori; dose-response, cultured PGs of V7 larvae, LC-MS/MS): 10^−9 M
level of p-4E-BP (4E-BP): upregulated by both PDF and PTTH
